Results taken from US8889130B2, “Treatment of osteoarthritis and pain” (Abbvie Inc., priority 2011, dated 2014).

Test system: Male SV129 mice
Test: Destabilization of medial meniscus (DMM) model of osteoarthritis, cartilage degeneration (Chambers scores)
Assay type: in vivo, mouse
Conditions: Example 3.3.6 (FIG. 7); 8 weeks; mAbs 6 mg/kg alone or in combination
Text: (§1) Male SV129 mice weighing approximately 30 grams, housed 5/cage, were anesthetized on Day 0 with ketamine/xylazine cocktail, administered intraperitoneally (ip), and then the medial collateral ligament was exposed by blunt dissection, and transected to reflect the meniscus toward the femur. The joint space was closed with 8-0 vicryl suture. The skin was closed with wound glue. For sham surgeries, a vertical skin incision was made over the medial aspect of the knee and the joint capsule was opened. The capsule was closed with 8-0 vicryl suture and the skin was closed with wound glue. Groups of animals were then treated with intraperitoneal (ip) injections of antibody or vehicle according to the study design table below. Two sex-matched, age-matched, and strain-matched naïve mice were also included in the study. Animals were euthanized after 8 weeks of treatment, and knee joints were harvested in 10% neutral buffered formalin.
Formalin-fixed samples were decalcified, and specimens were sectioned in the frontal plane into 15 step sections each. Each section was approximately 6 μm thick, and step sections were separated by 70 μm. All slides were stained with toluidine blue (T. Blue). Slides were assessed according to the Chambers method (Chambers et al. (2001) Arthritis Rheum 44:1455-65) for cartilage degeneration (see below) by a board-certified veterinary pathologist. Each of the four cartilage surfaces, the medial femoral condyle (MFC), the medial tibial plateau (MTP), the lateral femoral condyle (LFC), and the lateral tibial plateau (LTP), was scored from 0-6 according to the scale in the table below.
as §1, with “8-0 vicryl suture, and the” for “8-0 vicryl suture and the”, “injections of anti-mIL-1α monoclonal antibody, anti-mIL-1β (alone or in combination), mIL-1α/βDVD-Ig binding protein, or vehicle” for “injections of antibody or vehicle”, “design table below (Table 24). Animals were” for “design table below. Two sex-matched, age-matched, and strain-matched naïve mice were also included in the study. Animals were”, “weeks of treatment and knee” for “weeks of treatment, and knee”
Male SV129 mice weighing approximately 30 grams had the medial collateral ligament exposed by blunt dissection, and transected to reflect the meniscus toward the femur. The joint space was closed with 8-0 vicryl suture. The skin was closed with wound glue. For sham surgeries, a vertical skin incision was made over the medial aspect of the knee and the joint capsule was opened. The capsule was closed with 8-0 vicryl suture, and the skin was closed with wound glue. Groups of animals were then treated per os (po) or via intraperitoneal (ip) injections of vehicle or treatments according to the study design table below. Three sex-matched, age-matched, and strain-matched naïve mice were also included in the study. Animals were euthanized after 4 weeks of treatment, and knee joints were harvested in 10% neutral buffered formalin.

B1: 10G11: mouse anti-mouse IL-1β monoclonal antibody (clone 10G11) from IL-1α/β double KO mice (antibody, V domains shown)
VH: EVQLQQSGPELVKPGTSVKMSCKTSGYTFTSYVMHWVKQKPGQGLEWIGYIIPYNDNTKYNEKFKGKATLTSDKSSSTAYMELSSLTSEDSAVYYCARRNEYYGSSFFDYWGQGTTLTVSS
VL: DIQMTQSPASLSASVGETVTITCRGSGILHNYLVWYQQKQGKSPQLLVYSAKILADGVPSRFSGSGSGTQYSLKINSLQPEDFGSYYCQHFWSTPFTFGSGTKLEIKR
modifications: heavy chain variable domain of 10G11; light chain variable domain of 10G11
notes: mouse anti-mouse IL-1β monoclonal antibody (clone 10G11) from IL-1α/β double KO mice
- mean sum Chambers scores and mean maximum Chambers scores (cartilage degeneration): not statistically significant
